Results reported in patent US20030180744.

Key:
PDGF-AB (Homo sapiens) = PDGF-AB (Homo sapiens) (UniProt P04085+P01127); test: filter; settings: 2'-F pyrimidines; +/-7; random pool
[1] = molecular target: T1, KGF (hKGF) (Homo sapiens) (UniProt P21781); test: filter
T1 sequence: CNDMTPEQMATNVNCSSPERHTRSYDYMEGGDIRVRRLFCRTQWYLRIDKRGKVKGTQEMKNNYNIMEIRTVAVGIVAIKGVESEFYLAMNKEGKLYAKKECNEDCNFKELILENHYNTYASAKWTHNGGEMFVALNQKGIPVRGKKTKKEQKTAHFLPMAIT

[2] = molecular target: T1, KGF (hKGF) (Homo sapiens); test: FP; settings: 2'-F pyrimidines; method is nitrocellulose filter binding; DPBS, 37 C
[3] = molecular target: T1, KGF (hKGF) (Homo sapiens); test: competition; settings: 2'-F pyrimidines, PC-3 cells

Chain of PDGF-AB (Homo sapiens) (P01127 82-190, chain 2 of 2, other chains not shown): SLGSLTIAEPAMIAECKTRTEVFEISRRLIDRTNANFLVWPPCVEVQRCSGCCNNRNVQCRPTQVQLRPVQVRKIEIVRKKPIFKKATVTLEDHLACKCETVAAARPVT

GGGAGACAAGAAUAACGCUCAANNNNNNNNNNNNNNNNNNNNNNNNNNNNNNNNNNNNNNNNNNNNNNNNNNUUCGACAGGAGGCUCACAACAGGC [random 2'-F RNA 50N]
Kd (PDGF-AB (Homo sapiens)): 35 nM

GGGAGGACGAUGCGGAACGGAGAUGUCCCCUCAAMAUUUACCGUCUCCGUUUGCGCCCCAGACGACUCGCCCGA [31F]
Kd ([1]; 2'-F pyrimidines, DPBS, 37 C): 1 nM

GGGAGGACGAUGCGGCAANNNNNNNCUCUCUCCUGGCGUUCCGCAACCCGCCCCCAGACGACUCGCCCGA [19F]
Kd ([1]; 2'-F pyrimidines, second column 0.94-2.57, DPBS, 37 C): 1.6 nM

GGGAGGACGAUGCGGCAGUCUCCCUAGGUUUCAUCUCUGCAGCAUUCCGGGGUNCCAGACGACUCGCCCGA [51F]
Kd ([1]; 2'-F pyrimidines, DPBS, 37 C): 1.27 nM

GGGAGGACGAUGCGGGAAUUAACAGGGCCAGAAUUCUCAUCUNNCUUCCCGUGACCCAGACGACUCGCCCGA [12F]
Kd [2]: 1.38 nM

GGGAGGACGAUGCGGGAAUUCCCAGCGCUUGACUGAUACAAACNUUCCCGUGCCCCAGACGACUCGCCCGA [16F]
Kd ([1]; 2'-F pyrimidines, biphasic, high affinity 49%, Kd2 3.39 nM): 0.83 nM

GGGAGGACGAUGCGGGGACAAWYAGCGGUGUCUUUUCAUUUNKAUCCUCCGACRUCCCAGACGACUCGCCCGA [56F]
Kd ([1]; 2'-F pyrimidines, biphasic, high affinity 32%, Kd2 3.00 nM, PC-3 Ki 0.16 nM): 0.07 nM
IC50 [3]: 1 nM
Ki ([3]; 27.4 nM on NIH3T3/FGFR-2): 0.16 nM

GGGAGGACGAUGCGGNGACUGAUUUUUCCUUGNCAGUGUAAUUUCCUGGCUGCCCCAGACGACUCGCCCGA [38F]
Kd ([1]; 2'-F pyrimidines, DPBS, 37 C, PC-3 Ki 0.22 nM): 0.33 nM
IC50 [3]: 0.6 nM
Ki ([3]; 20 nM on NIH3T3/FGFR-2): 0.22 nM

GGGAGGACGAUGCGGNNNNNNNNNNNNNNNNNNNNNNNNNNNNNNNNNNNNNNNNCAGACGACUCGCCCGA [random 2'-F RNA 40N7]
Kd ([1]; 2'-F pyrimidines, random pool): 30 nM

GGGAGGACGAUGCGGNNNNNNNNNNNNNNNNNNNNNNNNNNNNNNNNNNNNNNNNCAGACGACUCGCCCGA [random 2'-NH2 RNA 40N7]
Kd ([1]; 2'-NH2 pyrimidines, random pool): 30 nM

GGGAGGACGAUGCGGUCGAGUGUUCUCCUUCGGUAACUAUUNNNNAUUUCGUGCCCAGACGACUCGCCCGA [44F]
Kd ([1]; 2'-F pyrimidines, DPBS, 37 C): 1.32 nM
